# In patent US20240116985A1 (published 2024):
# Starred links: 1 amine or outer side, 2 acyl side, 3 side chain; linkers in the order of their positions; H or OH if unused. Positions of bridges follow the written chain, without caps; N, C: chain ends. Non-standard residues stand in square brackets, D forms with d. Primed or numbered codes have the meaning given here. *: point of attachment. B5(11) = 2,2-bis(4-pentenyl)glycine = 2-amino-2-(pent-4-en-1-yl)hept-6-enoic acid (stitching residue, bears both staples), C=CCCCC(CCCC=C)(N[*:1])C(=O)[*:2]; PyrS2(3) = (S)-3-amino-1-((pent-4-en-1-yloxy)carbonyl)pyrrolidine-3-carboxylic acid, stapling residue, C=CCCCOC(=O)N1CC[C@@](N[*:1])(C(=O)[*:2])C1; PyrS2″ = (S)-3-amino-1-((pent-4-en-1-yloxy)carbonyl)pyrrolidine-3-carboxylic acid (stapling residue), C=CCCCOC(=O)N1CC[C@@](N[*:1])(C(=O)[*:2])C1; PyrS3″ = (S)-3-amino-1-((hex-5-en-1-yloxy)carbonyl)pyrrolidine-3-carboxylic acid (stapling residue), C=CCCCCOC(=O)N1CC[C@@](N[*:1])(C(=O)[*:2])C1; B5(4) = 2,2-bis(4-pentenyl)glycine = 2-amino-2-(pent-4-en-1-yl)hept-6-enoic acid (stitching residue), C=CCCCC(CCCC=C)(N[*:1])C(=O)[*:2]; B5(5) = 2,2-bis(4-pentenyl)glycine, 2-amino-2-(pent-4-en-1-yl)hept-6-enoic acid (stitching residue), C=CCCCC(CCCC=C)(N[*:1])C(=O)[*:2]; B5(21) = 2-amino-2-(pent-4-en-1-yl)hept-6-enoic acid, bis(4-pentenyl)glycine (stitching residue), C=CCCCC(CCCC=C)(N[*:1])C(=O)[*:2]; TfeGA = (S)-2-amino-3-((carboxymethyl)(2,2,2-trifluoroethyl)amino)propanoic acid, O=C([C@H](CN(CC(=O)[*:3])CC(F)(F)F)N[*:1])[*:2]; PyrS3 = (S)-3-amino-1-((hex-5-en-1-yloxy)carbonyl)pyrrolidine-3-carboxylic acid, C=CCCCCOC(=O)N1CC[C@@](N[*:1])(C(=O)[*:2])C1; B5(13) = 2-amino-2-(pent-4-en-1-yl)hept-6-enoic acid (two alkene chains), C=CCCCC(CCCC=C)(N[*:1])C(=O)[*:2]; B5″ = 2,2-bis(4-pentenyl)glycine, stitching residue, C=CCCCC(CCCC=C)(N[*:1])C(=O)[*:2]; mPEG2 = N-terminal 3-(2-methoxyethoxy)propanoic acid, COCCOCCC(=O)*; Phe(2-CN) = N#Cc1ccccc1C[C@H](N)C(=O)O; Phe(2-Cl) = N[C@@H](Cc1ccccc1Cl)C(=O)O; Bta = N[C@@H](Cc1csc2ccccc12)C(=O)O; αAllylPro = C=CC[C@@]1(C(=O)O)CCCN1; NMeH = CN[C@@H](Cc1c[nH]cn1)C(=O)O; tBuAla = CC(C)(C)C[C@H](N)C(=O)O; 3Thi = N[C@@H](Cc1ccsc1)C(=O)O; S8 = C=CCCCCCC[C@](C)(N)C(=O)O; Thr(ol) = C[C@@H](O)[C@H](N)CO; Alaol = C[C@@H](CO)N*; Ms = CS(=O)(=O)*
# T1: B-cat-Halo (UniProt P35222 1-781)
# T1 sequence (looked up): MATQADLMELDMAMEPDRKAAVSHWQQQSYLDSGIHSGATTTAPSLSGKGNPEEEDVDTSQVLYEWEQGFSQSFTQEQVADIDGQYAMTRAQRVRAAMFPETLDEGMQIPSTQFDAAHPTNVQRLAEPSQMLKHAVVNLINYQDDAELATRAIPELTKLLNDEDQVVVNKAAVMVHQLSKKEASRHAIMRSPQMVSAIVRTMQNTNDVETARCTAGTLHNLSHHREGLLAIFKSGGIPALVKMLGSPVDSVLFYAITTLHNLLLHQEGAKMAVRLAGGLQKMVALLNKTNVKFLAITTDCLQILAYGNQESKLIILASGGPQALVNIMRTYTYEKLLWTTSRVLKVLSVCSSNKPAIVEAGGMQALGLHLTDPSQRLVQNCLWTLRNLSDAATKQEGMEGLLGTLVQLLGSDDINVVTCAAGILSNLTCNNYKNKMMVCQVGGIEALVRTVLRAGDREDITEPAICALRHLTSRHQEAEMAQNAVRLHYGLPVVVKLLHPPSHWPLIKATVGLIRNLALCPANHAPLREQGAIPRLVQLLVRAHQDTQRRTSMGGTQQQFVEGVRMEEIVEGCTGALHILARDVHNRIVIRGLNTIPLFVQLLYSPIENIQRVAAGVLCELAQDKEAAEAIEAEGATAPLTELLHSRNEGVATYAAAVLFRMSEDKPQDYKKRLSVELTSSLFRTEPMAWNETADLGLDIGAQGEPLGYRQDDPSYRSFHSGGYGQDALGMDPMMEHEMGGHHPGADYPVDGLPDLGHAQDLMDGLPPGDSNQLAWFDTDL
# T2: B-cat-Halo (UniProt P35222 1-781)
# T2 sequence (looked up): T1 sequence (looked up)
# T3: full-length beta-Catenin (Uniprot ID P35222) (Homo sapiens (Human), UniProt P35222 1-781)
# T3 construct: also called bCat; B-Catenin
# T3 sequence: T1 sequence (looked up)
# T4: full-length beta-Catenin (Uniprot ID P35222) (Homo sapiens (Human), UniProt P35222 1-781)
# T4 construct: The assay protocol says full-length beta-Catenin (Uniprot ID P35222); tags are not described; also called bCat; B-Catenin
# T4 sequence: T1 sequence (looked up)
# B1: I-1206 (peptide)
# peptide: Ac-[αAllylPro]D[tBuAla][B5″]NDAAFN[PyrS2(3)][3Thi][Bta]Q-NH2
# modifications: staple 1-4, 4-11
# B2: I-1220 (peptide)
# peptide: Ac-[αAllylPro]N[tBuAla][B5(4)]DDAAFN[PyrS2″][3Thi][Bta]Q-NH2
# modifications: staple 1-4, 4-11
# B3: I-1253 (peptide)
# peptide: mPEG2-[αAllylPro]D[tBuAla][B5(5)]DDAAFN[PyrS2″][Phe(2-Cl)][Bta][dT]-NH2
# modifications: staple 1-4, 4-11
# B4: I-1221 (peptide)
# peptide: Ac-[αAllylPro]N[tBuAla][B5(4)]DDAAFL[PyrS2″][3Thi][Bta]Q-NH2
# modifications: staple 1-4, 4-11
# B5: I-1207 (peptide)
# peptide: Ac-[αAllylPro]D[tBuAla][B5″]NDAAFL[PyrS2(3)][3Thi][Bta]Q-NH2
# modifications: staple 1-4, 4-11
# B6: I-1250 (peptide)
# peptide: Ac-[αAllylPro]D[tBuAla][B5(4)]DDAAFL[PyrS2″][Phe(2-Cl)][Bta]-Alaol
# modifications: staple 1-4, 4-11
# B7: I-1249 (peptide)
# peptide: Ac-[αAllylPro]D[tBuAla][B5(4)]DDAAFL[PyrS2″][Phe(2-Cl)][Bta][Thr(ol)]
# modifications: staple 1-4, 4-11
# B8: I-1219 (peptide)
# peptide: Ms-[αAllylPro]D[tBuAla][B5″]D[TfeGA]AAFN[PyrS2(3)][3Thi][Bta]Q-NH2
# modifications: staple 1-4, 4-11; not fully specified
# B9: I-1203 (peptide)
# peptide: Ac-[αAllylPro]D[tBuAla][B5″]DDAAFL[PyrS2(3)][Phe(2-CN)][Bta]Q-NH2
# modifications: staple 1-4, 4-11
# B10: I-1218 (peptide)
# peptide: Ms-[αAllylPro]D[tBuAla][B5″]DDAAFN[PyrS2(3)][3Thi][Bta]Q-NH2
# modifications: staple 1-4, 4-11; not fully specified; printed as MeSO2-PL3-Asp-Npg-B5-Asp-Asp-Ala-Ala-Phe-Asn-PyrS2-3Thi-BztA-Gln-NH2
# B11: I-1248 (peptide)
# peptide: Ac-[αAllylPro]D[tBuAla][B5(4)]DDAAFL[PyrS2″][Phe(2-Cl)][Bta]Q-NHEt
# modifications: staple 1-4, 4-11
# B12: I-775 (peptide)
# peptide: Ac-[αAllylPro]D[tBuAla][B5(13)]DDAAFN[PyrS3][3Thi][Bta]H-NH2
# modifications: staple 1-4, 4-11
# B13: I-776 (peptide)
# peptide: Ac-[αAllylPro]D[tBuAla][B5(13)]DDAAFN[PyrS3][3Thi][Bta]H-NH2
# modifications: staple 1-4, 4-11
# B14: I-746 (peptide)
# peptide: Ac-[αAllylPro]DL[B5(11)]DEAAFN[S8]F[Bta][NMeH]-NH2
# modifications: staple 1-4, 4-11; not fully specified
# notes: Stapled peptide; same description as I-747, earlier eluting staple isomer composition; also called Ac-PL3-Asp-Leu-B5-Asp-Glu-Ala-Ala-Phe-Asn-S8-Phe-BztA-NMeHis-NH2
# B15: I-747 (peptide)
# peptide: Ac-[αAllylPro]DL[B5(11)]DEAAFN[S8]F[Bta][NMeH]-NH2
# modifications: staple 1-4, 4-11; not fully specified
# notes: Stapled peptide; same description as I-746, later eluting staple isomer composition; also called Ac-PL3-Asp-Leu-B5-Asp-Glu-Ala-Ala-Phe-Asn-S8-Phe-BztA-NMeHis-NH2
# B16: I-464 (peptide)
# peptide: Ac-[αAllylPro]DA[B5(21)]DEAAFN[PyrS3″]F[Bta]Q-NH2
# modifications: staple 1-4, 4-11; not fully specified; printed as Ac-PL3-Asp-Ala-B5-Asp-Glu-Ala-Ala-Phe-Asn-PyrS3-Phe-BztA-Gln-NH2
# notes: Staple isomer composition: later-eluting HPLC peak
# B17: I-463 (peptide)
# peptide: Ac-[αAllylPro]DA[B5(21)]DEAAFN[PyrS3″]F[Bta]Q-NH2
# modifications: staple 1-4, 4-11; also: earlier-eluting HPLC staple isomer
# notes: Staple isomer composition: earlier-eluting HPLC peak
# Target: T1, B-cat-Halo
# Experiment: cell-based or functional assay
row,NanoBRET Abs IC50 [µM],Binder
1,27.8,B1
2,17.3,B2
3,> 20,B3
4,23.4,B4
5,7.5,B5
6,> 20,B6
7,25.2,B7
8,> 20,B8
9,10,B9
10,> 20,B10
11,29.7,B11

# Target: T2, B-cat-Halo
# Experiment: cell-based or functional assay
row,NanoBRET Abs IC50 [µM],Binder
1,> 20,B12
2,45.7,B13

# Target: T3, full-length beta-Catenin (Uniprot ID …)
# Experiment: fluorescence polarization competition; full-length beta-catenin, competitor 5FAM-TCF4(10-53) probe
# Summary of the method: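 Data fitted to 1:1 binding model with hill slope from duplicate reads taken after 60 minutes at 20° C. in the dark.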
row,IC50 [µM],Binder
1,5,B14
2,2.39,B15

# Target: T4, full-length beta-Catenin (Uniprot ID …)
# Experiment: fluorescence polarization competition: full-length beta-catenin + 5FAM-TCF4(10-53) probe, peptide titrated
# Experimental: The plate was incubated protected from light for 60 minutes at 20° C. prior to read. Reads were performed on a CLARIOstar plate reader (BMG Labtech) in duplicate, and data were fitted to a 1:1 binding model with hill slope using an in-house script. All provided concentrations are final concentrations.
row,EC50 [µM],Binder
1,0.057,B16
2,0.092,B17
